In the RNAGym collection of RNA variant scans (doi:10.1073/pnas.2313332121):
Fewer inactive variants are shown than the library holds.

B1: TPR 5TU (parent)
chain: GGAUCUUCUCGAUCUAACAAAAAAGACAAAUCUGCCACAAAGCUUGAGAGCAUCUUCGGAUGCAGAGGCGGCAGCCUUCGGUGGCGCGAUAGCGCCAACGUUCUCAACUAUGACACGCAAAACGCGUGCUCCGUUGAAUGGAGUUUAUCAUG

Variants of: B1
Assay: polymerase ribozyme fitness, log enrichment relative to wild type (log ratio); higher = more active; in vitro selection for triplet polymerase activity
Procedure, shortened: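 Only genotypes with ≥10 input reads and ≥1 read per output were kept after Illumina sequencing of input and output libraries. These libraries were PCR-built, transcribed mutants of each subunit of a heterodimeric triplet polymerase ribozyme, each put through one triplicate in vitro selection round with frozen incubation at −7 °C, gel excision of extended constructs, streptavidin-bead capture and RT-PCR. Fitness is a logarithmic ratio of genotype enrichment to wild-type enrichment, from inverse-variance-weighted replicate averages, with the logarithm in base 2.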

Variant | polymerase ribozyme fitness (log ratio)
U9A C35U A121U G136A | ≤ -4.2
C38U U56A A60G U78A C79G C85A A119C U135G U151A | ≤ -4.2
A30G C38A U56A A107U A121C | ≤ -4.2
A60C G83A C108G | ≤ -4.2
G84C C118A C125U G136U | -4.09
C14U U44A | ≤ -4.2
U53A C93U | -2.51
A16C G50A C96A | -3.37
A113G C118G | -1.86
G65A G126A | -0.138
C8G A23G A40G G67C C99U U102G U127C G143C | ≤ -4.2
C75U C95U | 0.131
A60G C96A | -0.165
A41U G92A | -3.1
C5G G50A C87U | -2.86
A16G C57A C85G A121U | -2.53
G92U C103G | -3.77
C96A U104G | -0.932
A22C G84U A91U A107C G136C | ≤ -4.2
U15G A16U C95U A121U U130G | ≤ -4.2
A73U G80A U134C | -1.91

Variant | polymerase ribozyme fitness (log ratio)
G59C C63A G126A | -0.167
A16C G58C G83U A119C | -1.98
G59A U90A A98G C103A | ≤ -4.2
C69A U77C A98U A122U U146C U151A | ≤ -4.2
G25C A119C G136A | -3.75
C14G A26G U44A C99G C103U | ≤ -4.2
U45A G84A U148A | ≤ -4.2
G81U A98G | -0.549
G59A A89U C95A A97U C99A C125G | ≤ -4.2
A28U C32G C87U C99G | ≤ -4.2
U55C U144C | 0.187
A64G C85U | -3.21
C132G G141C | -3.73
U44A U82G | ≤ -4.2
A23U C27U U33G G42U G86U U101A G152A | ≤ -4.2
U102A C114A | -4
C54A U82A U134A U146C | -3.03
C43U C116G | -3.65
A3U C18G A22G G94C C131U | ≤ -4.2
A47U U55C G58C | -0.823
U7C C8G A20U U55A A66U G88A C99G G143U | ≤ -4.2

Variant | polymerase ribozyme fitness (log ratio)
C27U C36A A39C A41G G68A C93A A138G U139A | ≤ -4.2
A91C U102A C132U | -3.54
A19U A37U G67C C85A U109G U148C | ≤ -4.2
C8A A64G U82A A91U A97C A122G A142C | ≤ -4.2
C36G C95A C103U U134A A138C | ≤ -4.2
A3U C5A C35U C87A | ≤ -4.2
C51G G81C C85G C123U G143A | -3.82
A19U C35U G86A A119G G141A | -3.69
A26U C54G | -3.33
C27G U77A G86U A115G C131U G143C U151G | ≤ -4.2
G86U C93A | -0.194
U7C C14U U53A C96U U104C C116A G124U U135G | ≤ -4.2
U130G U135C | -4.07
A3G A19U G92U A113C | -3.43
U7A C35A A39U G50A G92U C95A U130A U135A | ≤ -4.2
C85G A121U | -3.11
U56A G81C G83A C87G A107G A122C G141U | ≤ -4.2
A20G C32U G84U C93G | -4.2
C8A C51A C57A G59A U61A G67C C95U C125U U134C U139A | ≤ -4.2
A91U A121U U144A | ≤ -4.2
G68C G74C C87U C118A U135A C149G | ≤ -4.2

Variant | polymerase ribozyme fitness (log ratio)
A40U G48C U53A U144G | -2.19
A19G G81C G92U U134G | -2.69
A26G C93A G124A | -4.18
C35A C54U G94U U135G G140C | ≤ -4.2
A21G A22U U53A C85G C132G | ≤ -4.2
A73C C87A | ≤ -4.2
U13A G42C G48C C85A C99G A106G G133U G141C | ≤ -4.2
C5A A29U A52C G74A A97G | ≤ -4.2
C10G A17U A37C C93U | -4.18
U56A C76U C87U C129G A150C | ≤ -4.2
G83U U135A | -1.05
C27G G46A A64C U77G G88U A121U | ≤ -4.2
U13G C32U G88C A97U | ≤ -4.2
C123G G141C | -0.168
A41U U55A A66G C93U A110G G140A | ≤ -4.2
A41U C57G A120G | -2.19
G74U G83C G94C | ≤ -4.2
A26C A60U U104C | -3.72
A39U G46U A47C A52C C87U A98G U104G C114A C125U | ≤ -4.2
U45A C87U | -3.28
